From publication PMC9663503, “Independently evolved viral effectors convergently suppress DELLA protein SLR1-mediated broad-spectrum antiviral immunity in rice” (Nature Communications, 2022)

Target: T1, GST-SLR1 (rice (Oryza sativa), UniProt Q7G7J6 1-625)
T1 construct: SLENDER RICE 1 (SLR1), the rice DELLA protein; 'the cDNAs encoding SLR1'; source: E. coli Rosetta (DE3), purified (GSTrap FF column)
T1 sequence: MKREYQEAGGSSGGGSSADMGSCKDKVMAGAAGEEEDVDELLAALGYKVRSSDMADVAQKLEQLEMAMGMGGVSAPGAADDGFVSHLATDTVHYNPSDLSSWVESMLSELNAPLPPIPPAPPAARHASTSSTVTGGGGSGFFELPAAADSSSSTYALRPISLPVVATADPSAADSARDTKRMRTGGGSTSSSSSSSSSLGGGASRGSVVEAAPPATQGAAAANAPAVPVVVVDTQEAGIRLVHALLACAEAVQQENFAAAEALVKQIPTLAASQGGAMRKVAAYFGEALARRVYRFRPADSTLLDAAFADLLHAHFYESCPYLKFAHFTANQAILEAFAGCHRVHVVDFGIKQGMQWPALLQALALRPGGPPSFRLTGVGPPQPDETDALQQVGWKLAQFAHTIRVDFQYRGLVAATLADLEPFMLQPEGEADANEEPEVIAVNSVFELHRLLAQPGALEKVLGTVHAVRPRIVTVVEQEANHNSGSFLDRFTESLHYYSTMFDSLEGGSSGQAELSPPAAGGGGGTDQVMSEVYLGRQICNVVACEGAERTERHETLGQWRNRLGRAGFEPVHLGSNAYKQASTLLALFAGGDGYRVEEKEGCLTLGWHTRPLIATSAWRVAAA
Assay: pull-down; competitive pull-down: GST-SLR1 and MBP-His-OsGID1 with 100 µM GA3, then 10 or 50 µg TF-His-SP8 (or MBP-His-P2), 4 °C about 2 h; GST beads; anti-GST and anti-His blots
Conditions: both partners purified

B1: MBP-His-OsGID1 (receptor)
chain: MAGSDEVNRNECKTVVPLHTWVLISNFKLSYNILRRADGTFERDLGEYLDRRVPANARPLEGVSSFDHIIDQSVGLEVRIYRAAAEGDAEEGAAAVTRPILEFLTDAPAAEPFPVIIFFHGGSFVHSSASSTIYDSLCRRFVKLSKGVVVSVNYRRAPEHRYPCAYDDGWTALKWVMSQPFMRSGGDAQARVFLSGDSSGGNIAHHVAVRAADEGVKVCGNILLNAMFGGTERTESERRLDGKYFVTLQDRDWYWKAYLPEDADRDHPACNPFGPNGRRLGGLPFAKSLIIVSGLDLTCDRQLAYADALREDGHHVKVVQCENATVGFYLLPNTVHYHEVMEEISDFLNANLYY
notes: OsGID1, the rice gibberellin receptor GIBBERELLIN … DWARF1; also called PET32a-MBP-His-OsGID1; source: E. coli Rosetta (DE3), purified (Ni-NTA His-trap column)
B1: binds.
